Results published in paper PMC2082129, “A Switch in the Mechanism of Communication between the Two DNA-Binding Sites in the SfiI Restriction Endonuclease” (Journal of Molecular Biology, 2007).
Residue numbers refer to the chain shown, from its start. Names and notes keep the numbering of the source.

B1: SfiI restriction endonuclease, wild type (enzyme)
chain: MHQDYRELSLDELESVEKQTLRTIVQALQQYSKEAKSIFETTAADSSGEVIVLAEDITQYALEVAETYPINRRFAGFIDYKRVRWLPSPHGLLPQVLLVDAKASTEKNRDTLQRSQLPMDAEFRNTSSGEVVTMEAGVIPHLMLQSANDGVLPAVTTSIFVHFYYRELKDVEGRYRELKSIYVLSLPHARLKQRYNPDPDTSFFGAGKHSPARGEVARIRVYFDRLKEACPWRLQELHYSADSEYTQPRWRDLNDAGHEVTKEFLFLER
notes: SfiI restriction endonuclease, expressed from the SfiI restriction gene on pRRS-SfiIR+; tetramer of identical subunits, Mr of the tetramer printed as 124,176; The plasmid carries the SfiI restriction gene, and the printed tetramer Mr of 124,176 fits four whole subunits; In the AUC the protein stood with the 21-bp DNA duplex HEX-21 and Ca2+; also called wt SfiI; SfiI endonuclease; source: E. coli …
B2: SfiI restriction endonuclease, Y68F mutant (enzyme)
chain: B1 chain with Y68F
notes: SfiI restriction endonuclease with Tyr68 replaced by Phe (QuikChange mutagenesis of pRRS-SfiIR+); Same construct as m1 apart from Y68F; also called Y68F protein; source: E. coli ER2238 (transformed with pSYX33-SfiIM+ and a derivative of pRRS-SfiIR+), purified as described previously

Target: the molecule itself
Assay: AUC; sedimentation equilibrium at 20 °C; 2.5 μM enzyme (tetramer) with 2.5 μM HEX-21 DNA duplex; AUC buffer (10 mM Tris-HCl, 50 mM NaCl, 10 mM CaCl2, 1 mM DTT, pH 7.9); absorbance of the HEX label at 539 nm; 10,000, 15,000 and 25,000 rpm, global fit to a single species; oligomeric state of the protein bound to DNA

Row | Protein | stoichiometry N
1 | B1 | 4
2 | B2 | 4
